In the DeepSol protein solubility set:

experiment: soluble on expression in E. coli; label from the status in PepcDB or PDB records

For “MGHHHHHHHHHHSSGHIDDDDKHMKNKKDKGLLSGKLTPAQSKNPAKNELYLVEGDSAGGSAKQGRDRKFQAILPLRGKVINTAKAKMADILKNEEINTMIYTIGAGVGADFSIEDANYDKIIIMTDADTDGAHIQTLLLTFFYRYMRPLVEAGHVYIALPPLYKMSKGKGKKEEVAYAWTDGELEELRKQFGKGATLQRYKGLGEMNADQLWETTMNPETRTLIRVTIEDLARAERRVNVLMGDKVEPRRKWIEDNVKFTLEEATVF”, which “soluble on expression in E. coli” value is on record?
Its value is “soluble”.

For “GPGSMRSASAYGLDGQARSLCSLYHPSLNSQECHRFLIGTANPSADNKIHLIEYQDDTKSLECATVWSHNDPVMGLWCSPSLSADSLLAVSSLRKLVVFQISENVLNEPKCIATMNKNYSRVLWDLDGLQREFRAVHQNTLTTVFLSSSKLGSETVNYTSSGGFIRCAALAPYDPNLCLISCDSDGLQLVDLRSKKASSFATTKYSHGFGYTTAVDFDRLKPGQFLSAGTDGYVYIHDIRYNTSCSLAILRHMKAHEHAVQSCSFNSFRDELVLSCSSDQTLKLWDVEHNNEPKCLRRLADYGDSVVALCWSGNSPWVFAGLSFNGKLLVDTVPNEKKMSILLDEKKWCET”, which “soluble on expression in E. coli” value is on record?
Its value is “not soluble”.

For “MLGVCYYPEHWPKERWKEDARRMREAGLSHVRIGEFAWALLEPEPGRLEWGWLDEAIATLAAEGLKVVLGTPTATPPKWLVDRYPEILPVDREGRRRRFGGRRHYCFSSPVYREEARRIVTLLAERYGGLEAVAGFQTDNEYGCHDTVRCYCPRCQEAFRGWLEARYGTIEALNEAWGTAFWSQRYRSFAEVELPHLTVAEPNPSHLLDYYRFASDQVRAFNRLQVEILRAHAPGKFVTHNFMGFFTDLDAFALAQDLDFASWDSYPLGFTDLMPLPPEEKLRYARTGHPDVAAFHHDLYRGVGRGRFWVMEQQPGPVNWAPHNPSPAPGMVRLWTWEALAHGAEVVSYFRWRQAPFAQEQMHAGLHRPDSAPDQGFFEAKRVAEELAALALPPVAQAPVALVFDYEAAWIYEVQPQGAEWSYLGLVYLFYSALRRLGLDVDVVPPGASLRGYAFAVVPSLPIVREEALEAFREAEGPVLFGPRSGSKTETFQIPKELPPGPLQALLPLKVVRVESLPPGLLEVAEGALGRFPLGLWREWVEAPLKPLLTFQDGKGALYREGRYLYLAAWPSPELAGRLLSALAAEAGLKVLSLPEGLRLRRRGTWVFAFNYGPEAVEAPASEGARFLLGSRRVGPYDLAVWEEA”, which “soluble on expression in E. coli” value is on record?
The value was “soluble”.

Which “soluble on expression in E. coli” value does the source give for “MEAGFKRKVDYLDRPERSEVLSPEDFLQAMPIGKTASILDLGAGTGFLTIPAAKLVDNTVFALDLDAKMLELIESKAKEAGLANVETLEASMDDIPLEANSVDVVLASLVLHEADSLADVLREVSRVVKTGGYFASLEFDTKGTDLKGPPMEIQISAEKLKEELAGFGFEVVKNWQLDEGMYVSIAVKKLEHHHHHH” here?
The value was “not soluble”.

Which “soluble on expression in E. coli” value does the source give for “MELKHSISDYTEAEFLEFVKKIARAEGATECDDNKLVREFERLTEHPDGSDLIYYPRDDREDSPEGIVKEIKEWRAANGKSGFKQG” here?
The value was “soluble”.

With “MKPRNINNSLPLQPLVPDQENKNKKNEEKSVNPVKITMGSGLNYIEQESLGGKYLTHDLSIKIADISEEIIQQAILSAMSIYKFSITDDLMSMAVNELIKLTKIENNVDLNKFTTICTDVLSPRVTRHNKEKNKRHSTLLKNPLFNFHLEHHHHHH” as the sequence, how does the “soluble on expression in E. coli” value read?
Its value is “soluble”.

With “MSLIYLLNETPFEGVENLILNEIVFYDFSVDLSLYDALICTSKNALKALQHAKITLNFKLNLYAVGQSTAQYAKNLGFKKIKIPSKAYGKDLFLEFKEELKMQKCLYLRAKNIVSTLNLDLKNVGVDLDEMIVYENVFKKGDKKLIHPAIFIFTSPLSVENFLKFYSLKEEDKVVVIGQSTAKKLLNFKNLYICENQSLLNCVKLAKTLVEGHHHHHH” as the sequence, how does the “soluble on expression in E. coli” value read?
The value was “not soluble”.

With “MGSDKIHHHHHHMDTKFSCVGCGGCCTDHHVPLTLLEARQWAADGGNVIVLTEAFLSNGYGVAQNQLTHATRRSTEVNSGSTTAFVAITFAAYNVGRCRNLDEENLCRIYERRPLVCRIYPMEINPHIPLRPETKGCPPESWEQGPDLIVGDTLVDTQLMSLIEQSRQADRDEIAAKQLICQQLGIRTTALKGNGFVAYLPDMNAFAAAIENVANLAGAAPENSDWEFHVAGQHVVDTLQQEGADVTDREPVSYLFIPLQAA” as the sequence, how does the “soluble on expression in E. coli” value read?
Its value is “not soluble”.

Which “soluble on expression in E. coli” value does the source give for “MGSDKIHHHHHHMPLCPSCEMKFNSWEDLAKHMDLIANTNSDKSHVMWLNRNISMKRMEVNELANALERFFSTPNSLSMWIRTRFIERFYGDNPHPFIVAMQNPTKGVLLGYVIEHQHFLKNWVKVLSSIVFKTDKDDVLQYELENISVEFIGYNGRPAHYELLLRMGEALGMPREKILSTQPLPSTQSAIKTWRKIAESKTWLETMASMHSLELVADRSLVKYGAKLPYFNPEILSSDEYPQAVKDFLREGYEADVSHAGEALEMVEKYTEEMEMKEQVQITVLKSFDAFSKYLLARLERGFEIEPSLLKRVIK” here?
Its value is “not soluble”.

Which “soluble on expression in E. coli” value does the source give for “GMVPMTRFDSATEVVRVGENRYAVELDPGYLIGTAMNGGYLMTVLQRSALAESDHLHAVSSSYHFHRPASSGPAEIETRVLKRGRTVTTVQTTLFQEGRTILTGTLATATLDPHAEPRYAAPQPAIPPQHQCRRVDPRQSHLPDDGFLARVDVDFSPDSYAALARERTVTTPELCGYVDLSARDGGSAKDPLAFLPLAVDALPPIVSLLVDWSWAPTVELTWHLRAIPEPGPLAFRSTCALVSDGWFDENVDLWDARGRLVAQSRQLARVGR” here?
Its value is “soluble”.

Which “soluble on expression in E. coli” value does the source give for “QRNGFCRLPADEGICKALIPRFYFNTETGKCTMFSYGGCGGNENNFETIEECQKACGAPERVNDFESADFKTGCEPAADSGSCAGQLERWFYNVQSGECETFVYGGCGGNDNNYESEEECELVCKNM” here?
Its value is “soluble”.

With “MFAELIRAGLQALIEAEATEAIGAGRYERSDGRIVHRNGHRPKTVSTTAGDIEVQIPKLRAGSFFPSLLERRRRIDKALHAVIMEAYVHGVSTRSVDDLVAAMGVQAGVSKSEVSRICAGLDTEIEAFRTRSLTHTEFPYVFCDATFCKVRVGAHVVSQALVVATGVSIDGTREVLGTAVGDSESYEFWREFLASLKARGLTGVHLVISDAHAGLKAAVAQQFSGASWQRCRVHFMRNLYTAVAAKHAPAVTVAVKTIFAHTDPEEVGAQWDRVADPLCQP” as the sequence, how does the “soluble on expression in E. coli” value read?
The value was “soluble”.

Which “soluble on expression in E. coli” value does the source give for “MIKLSNITKVFQQGTRTIQALNNVSLHVPAGQIYGVIGASGAGKSTLIRCVNLLERPTEGSVQVGGQELTTLSESELTKARRQIGMIFQHFNLLSSRTVFGNVALPLELDNTPKEEIKRRVTELLDLVGLGDKHDSYPANLSGGQKQRVAIARALASNPKVLLCDEATSALDPATTRSILELLKDINRRLGLTILLITHEMDVVKRICDCVAVISNGELIEQDTVSEVFSHPKTPLAQKFIQSTLHLDIPEDYQARLKASPETDSVPMLRMEFTGQSVDAPLLSETARRFNVNNNIISAQMDYAGGVKFGIMLTEMHGTQEETQAAIAWLQDHHVKVEVLGYV” here?
Its value is “not soluble”.

Which “soluble on expression in E. coli” value does the source give for “MGSDKIHHHHHHMKLAVISSIYKNDSLSKIKQSLQSLLNQENVTCDIYLYCDGPVSIDIVHFLDSFDQNSLYIFKQEQNRGLAHALNELLNIVLTKEYEYIARMDADDISMPERFVKQIAFMNSHPDIDCLGTWAIEIDDDGKEYFRKKMPITHEECLELFKKRDCMIHPTVMFRRSYFEKAGLYPEDTYFGEDTMMWAKGFKSGCKFANVPEYLFKFRLDSNFFERRRGWKHAKSIYTLRHRVNRMLGFGWKEDCYALLYAMAKLMPKSILDIIYKTVR” here?
Its value is “not soluble”.

Which “soluble on expression in E. coli” value does the source give for “MSLKNENKMIIYQVFTRLFGNNNNHCIYNGDISQNGCGKMADFTAKALGEIKKLGATHIWYTGIIEHASQTDYRRYNIRPDHPAIVKGKAGSPYAIKDYYDVDPDLATDVPGRMKEFENLVSRTHRAGLKVIIDFVPNHVARQYHSDAQPDGTTQLGANDDPNYSFSPYNNFYYIPQSELHGQFDMTGNALEPYHEFPAKATGNNRFDAYPNINDWYETVKLNYGVDYQNGGTCHFSPTPDTWTKMLDILLFWSSKNIDGFRCDMAEMVPVEFWEWAIPQVKQEYPNIIFIAEVYNPHEYKNYLFRGKFDFLYDKVGLYDTLRNVACGYDSATAITRSWQSLGGIEKRMLNFLENHDEQRIASDFFAGDPRKGVPALIVSACMNTNPMMIYFGQEFGEMGMDSEGFSGRDGRTTIFDYWSVDTIRRWRNEGKFDGKMLTEEQKHLYAIYQRVLTLCNEEQAISNGVFFDLMYANENGWRFNEHKQYTFMRKYKNELLFIVVNFDNQPVNVAINVPSHAFDFLQIPQFDSYKAVDLLTDKVEEISLLPYKATEIALGAYTGKILKIKEGHHHHHH” here?
Its value is “soluble”.
